These results are taken from article doi:10.1101/2022.01.10.475532 (bioRxiv, 2022).

This assay has as its target recombinant S trimer protein of the WT SARS-CoV-2 strain (SARS-CoV-2 WT (Wuhan-Hu-1), UniProt P0DTC2, stabilised). Nature of the assay: ELISA.

B1: MAb S3H3 (IgG) (antibody, V domains shown)
VH: QVQLQQPGAELVRPGASVKLSCKASGYSFTRFWMNWVKQRPGQGLEWIGMIHPSDSETRLNQKFKDKATLTVDKSSTTAYMQLSSPTSEDSAVYYCARKDYDYDAWFAYWGQGTLVTVSA
VL: DIVLTQSPASLAVSLGQRATISCRASKSVSASVYSYMHWYQQKPGQPPKLLIYLASSLESGVPARFSGSGSGTDFTLNIHPVEEEDAATYYCHHSRELPPAFGGGTKLEIK
On to B1, for which the binding result was “binds”.
